Experimental findings from patent US20140356376 are described below.

Data set [1] has as its target thio-S4497 HC v1-MP-LAFG-PABC-(piperazinoBOR) AAC-193.
Data set [2] concerns the target thioFAB 4497 MP-LAFAA-QSY7.
Data set [3] deals with thioFAB 4497 MP-LAFGA-QSY7.

B1: staphopain A (protein)
chain: YNEQYVNKLENFKIRETQGNNGWCAGYTMSALLNATYNTNKYHAEAVMRFLHPNLQGQQFQFTGLTPREMIYFEQTQGRSPQLLNRMTTYNEVDNLTKNNKGIAILGSRVESRNGMHAGHAMAVVGNAKLNNGQEVIIIWNPWDNGFMTQDAKNNVIPVSNGDHYQWYSSIYGY
In turn, B1 gave a Percent cleavage pH 5 in data set [1] of 100%. For the same protein, the Percent cleavage pH 7.2 in data set [1] came to 46%; in data set [2], 23%; in data set [3], 38%.
